Laboratory results: US20090311282A1

Legend:
[1] = biological target: purified GDF8 prohormone with C-terminal FLAG epitope (GDF8 prohormone-FLAG fusion protein) (human) (UniProt O14793); experiment: ELISA, purified GDF8 prohormone coated 250 ng/well; MAB 788 10 mg/ml diluted 1:20
[2] = biological target: DJ2 peptide (GDF8 residues 282-301) (human); experiment: ELISA, peptide coated 500 ng/well; MAB 788 10 mg/ml diluted 1:20
[3] = biological target: DJ1 peptide (GDF8 residues 267-286) (human); experiment: as above
DJ1 peptide (GDF8 residues 267-286) (human), sequence (peptide, as listed by the source): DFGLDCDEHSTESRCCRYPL

[4] = biological target: DJ4 peptide (GDF8 residues 312-331) (human); experiment: as above
DJ4 peptide (GDF8 residues 312-331) (human), sequence (peptide, as listed by the source): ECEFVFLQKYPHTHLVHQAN

[5] = biological target: DJ5 peptide (GDF8 residues 327-346) (human); experiment: as above
DJ5 peptide (GDF8 residues 327-346) (human), sequence (peptide, as listed by the source): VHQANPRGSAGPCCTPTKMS

[6] = biological target: DJ3 peptide (GDF8 residues 297-316) (human); experiment: as above
DJ3 peptide (GDF8 residues 297-316) (human), sequence (peptide, as listed by the source): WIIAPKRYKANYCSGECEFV

[7] = biological target: DJ6 peptide (GDF8 residues 342-361) (human); experiment: as above
DJ6 peptide (GDF8 residues 342-361) (human), sequence (peptide, as listed by the source): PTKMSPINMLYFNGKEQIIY

[8] = biological target: DJ7 peptide (GDF8 residues 357-375) (human); experiment: as above
[9] = biological target: GDF8 protein (R&D Systems Inc., Minneapolis, Minn.) (UniProt O14793); experiment: cell-based or functional assay
[10] = biological target: DJ2 peptide (GDF8 residues 282-301) (human); experiment: ELISA, peptide coated 500 ng/well; MAB 788 10 mg/ml diluted 1:80
[11] = biological target: DJ1 peptide (GDF8 residues 267-286) (human); experiment: as above
[12] = biological target: DJ4 peptide (GDF8 residues 312-331) (human); experiment: as above
[13] = biological target: DJ5 peptide (GDF8 residues 327-346) (human); experiment: as above
[14] = biological target: DJ3 peptide (GDF8 residues 297-316) (human); experiment: as above
[15] = biological target: DJ6 peptide (GDF8 residues 342-361) (human); experiment: as above
[16] = biological target: DJ7 peptide (GDF8 residues 357-375) (human); experiment: as above
[17] = biological target: purified GDF8 prohormone with C-terminal FLAG epitope (GDF8 prohormone-FLAG fusion protein) (human) (UniProt O14793); experiment: ELISA, purified GDF8 prohormone coated 250 ng/well; MAB 788 10 mg/ml diluted 1:80
[18] = biological target: purified GDF8 prohormone with C-terminal FLAG epitope (GDF8 prohormone-FLAG fusion protein) (human) (UniProt O14793); experiment: ELISA, purified GDF8 prohormone coated 250 ng/well; MAB 788 10 mg/ml diluted 1:40
[19] = biological target: DJ2 peptide (GDF8 residues 282-301) (human); experiment: ELISA, peptide coated 500 ng/well; MAB 788 10 mg/ml diluted 1:40
[20] = biological target: DJ1 peptide (GDF8 residues 267-286) (human); experiment: as above
[21] = biological target: DJ4 peptide (GDF8 residues 312-331) (human); experiment: as above
[22] = biological target: DJ5 peptide (GDF8 residues 327-346) (human); experiment: as above
[23] = biological target: DJ3 peptide (GDF8 residues 297-316) (human); experiment: as above
[24] = biological target: DJ6 peptide (GDF8 residues 342-361) (human); experiment: as above
[25] = biological target: DJ7 peptide (GDF8 residues 357-375) (human); experiment: as above

DJ2 peptide (GDF8 residues 282-301) (human), sequence (peptide, as listed by the source): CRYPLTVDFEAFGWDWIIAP

## Rat monoclonal antibody 788 (R&D Systems Inc., Cat. No. MAB788)
[1]
  OD 405/minute × 1000 (OD 405/minute × 1000): 132
[2]
  OD 405/minute × 1000 (OD 405/minute × 1000): 0
[3]
  OD 405/minute × 1000 (OD 405/minute × 1000): 4
[4]
  OD 405/minute × 1000 (OD 405/minute × 1000): 0
[5]
  OD 405/minute × 1000 (OD 405/minute × 1000): 133
[6]
  OD 405/minute × 1000 (OD 405/minute × 1000): 0
[7]
  OD 405/minute × 1000 (OD 405/minute × 1000): 0
[8]
  OD 405/minute × 1000 (OD 405/minute × 1000): 0
[9]
  % Inhibition of GDF8 Activity (0.1 µg IgG), A204 CAGA-luciferase transcriptional activation assay: 0%
  % Inhibition of GDF8 Activity (1.8 µg IgG), A204 CAGA-luciferase transcriptional activation assay: 0%
  % Inhibition of GDF8 Activity (3.1 µg IgG), A204 CAGA-luciferase transcriptional activation assay: 7%
  % Inhibition of GDF8 Activity (6.3 µg IgG), A204 CAGA-luciferase transcriptional activation assay: 17%
  % Inhibition of GDF8 Activity (12.5 µg IgG), A204 CAGA-luciferase transcriptional activation assay: 47%
[10]
  OD 405/minute × 1000 (OD 405/minute × 1000): 0
[11]
  OD 405/minute × 1000 (OD 405/minute × 1000): 0
[12]
  OD 405/minute × 1000 (OD 405/minute × 1000): 0
[13]
  OD 405/minute × 1000 (OD 405/minute × 1000): 102
[14]
  OD 405/minute × 1000 (OD 405/minute × 1000): 0
[15]
  OD 405/minute × 1000 (OD 405/minute × 1000): 0
[16]
  OD 405/minute × 1000 (OD 405/minute × 1000): 0
[17]
  OD 405/minute × 1000 (OD 405/minute × 1000): 132
[18]
  OD 405/minute × 1000 (OD 405/minute × 1000): 127
[19]
  OD 405/minute × 1000 (OD 405/minute × 1000): 0
[20]
  OD 405/minute × 1000 (OD 405/minute × 1000): 0
[21]
  OD 405/minute × 1000 (OD 405/minute × 1000): 0
[22]
  OD 405/minute × 1000 (OD 405/minute × 1000): 118
[23]
  OD 405/minute × 1000 (OD 405/minute × 1000): 0
[24]
  OD 405/minute × 1000 (OD 405/minute × 1000): 0
[25]
  OD 405/minute × 1000 (OD 405/minute × 1000): 0

## normal goat IgG (negative control purified from non-immunized goat sera) (antibody)
[9]
  % Inhibition of GDF8 Activity (250 µg IgG), A204 CAGA-luciferase transcriptional activation assay: 0%
